Data as given in a protein production outcome set (Wang et al. 2014).

Assay: label from the status in PepcDB records
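Note: failed if final PepcDB status was selected cloned or expressed and not failed if soluble or beyond.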

Sequence	protein production
MPAGSDWRTQPPSDYAQWNPAPRMPNQPKPLTTAHHQFAAIVQNSFDAIVSKDVEGNVQSWNPAAEQIFGWTADEMIGNSIRVLIPPDRQHEEDDILQRIRTGEMVPKFETERLHKSGRRIHVAVTVSPLRDPDGRIVGASKIAHDITETVEIRRRLVASEHQFRSLANSIPQLAWIAESDGTVFWYNDRWFDYTGTTLEQLRGSGWTALHHPDHLERVRSKLQHSWDTGEAWEDTFPLRGKDGEYRWFLSRAMPLRDDSGEVWRWFGTNTDITVQRQHEQQIQMLMGEINHRAKNMLAVVQAMVMRTADRSFAESLGARLQALSRNQDLLIKRNWSGTPIGELIESQLAAVNDLIGTRVLIEGERELLLSPVASETIGLAIHELTTNATKYGALSNADGTVRIACEIRHTVDGPKLDLIWHEQGGPPVGEPNRAGFGTVMIDRNPRSALGADVEISYPESGLRWCLNAPLDRLVATP	not failed
MPAIMPMLWKQPFGNNLWGLKMKKVEKLLIIGIVLISSILLGAMTLAKPAQANASIVIVIDNEVKHRIPLMVEEEMQTYEFKFGEQTGYLEVKNGKVRMLEMPKEICPEGICSETGWIARSSQAIVCLPNKIIVTIQGLDDKNDEIL	failed
MPAKRRSNARPARAWPTCLSRGSSAVKRVHVAAAVIRDASGKILIARRADTQHQGGLWEFPGGKVEPGEAVEAALARELQEELGIAVTAARPLIKVQHDYPDKQVLLDVWEVSAFSGEPHGAEGQPLAWVTARELADYEFPAANQPIVAAARLPAQYLITPEGLETPTLLRGMQKAVAQGCKLIQLRAPGGYDPQYRDLAVDAVGLCAGKAQLMLKGPFEWLGDFPSAGWHITAAQLRKYASAGRPFGKDRWLAASCHNAEELSLAQQMDVDFVTLSPVQPTQTHPDAQPLGWQQAEQLISGFNKPVYLLGGVGPAECQQAWAAGAQGVAGIRAFWPQD	failed
MPAPKKALRRSLTVTSAALTALALLSPAALAAPSPSTSPSATPPASMSGVGGARLGKPGTQVDLAGGAPVLPKDLTARSWIVADAESGDVLAAHNAHWELAPASTLKMLFADTLLPKWPKTTKRKVQVSDLAGIGSGSSMVGIKEEETYTVHDLWLGVFLRSGNDAVHVLSAMNDGVEKTVADMNAHAKELQAGDTTVVSPDGYDMPGQVSSAYDLTLFARSGLQKKDFREYASTVRAKFPGETKKDKKGKTSREPFEIQNTNRLLAGDADVEVYPGIAGVKNGYTTNAGNTFTGVAEQGGKVLLVTVMHPAEDKHNEVYKETARLFDWGFRAAGKVRPVGELVRPRSATAASPSAEASGEAGGTGKGGAGTKPVAGAAAGDGAGGAGVAAGIAAGVLALLAGGAFLINRKWPLPDLVRRRTRP	failed
MPASETQGGPPPDDHTDAEPPPPLPEQSDFADAVLAAMPDPVFVFGPQNTLAWGNPPLRQAVGHSAAALRGKSLPELFGKGDAAAVEQALDAVRAGRDTATAEVALLPREGPPRPCTFTARPLSGDVGPPNCVVGIAR	failed
MPAYDLIIRNGTICDGTGAPRFTGDVAVKNGLIVAVGAVRGDAAEEVDATGRIVAPGWVDVHTHYDGQATWDPEMAPSSWHGVTTVIMGNCGVGFAPAAPDRHDWLIGLMEGVEDIPGTALAEGMAWDWESFPEYLDSLEKMPRAVDVGTHVPHGAVRAYVLGEREKPGAVPTAEDIRKMSEIVEEGVRAGALGFSTSRTVIHKSVDGEVVPGTTATAEELIEIGRAMGRVGHGVFEMASDMKREWDEFGWMGALSRETGLPVTYAALQSIAKEMPLEEQIAEMRHQNAQGANIVAQIALRGNGVIMAWRGTIHPFRFRPSYAAIAELPWEEQLVQLKDPAFRAKVLAEANVYPDSDIVNLFRMIAEGWHNQFIMDEDFDYEPQPEASILLRAKTAGVSPDAFAYDKLMEDEGNGFIYLPILNYADGNLDFLEALQAADDTVNSLSDGGAHCGTICDAASPTFMLQHWVRDRRRGSRISLEHAIKRQCHDTARLYGLDDRGVIAPGYLADINVIDFDRVRLLKPWLAFDLPAGGKRLLQKAEGYDYTIKGGKVTFRNGEWTGATPGNLIRGPQRADLMEAAE	failed
MPDATLSNTSLGRLAWLWLTVLIVAVDQVSKYYFENALSLYQQIIVIPDYFSWTLAYNTGAAFSFLADGAGWQRWLFALIAVVVSAVLVVWLKRLGRDDTWLAIALALVLGGALGNLYDRVVLGHVIDFILVHWQNRWYFPAFNVADSAITVGAIMLALDMFKSKKTGETVND	failed
MPDIDLHALSRTVLWATFALTFLFGAILQRTHFCTMGAVSDAVNIGDWSRLRMWALAIGVAMIGTGILGWAGWIDPAKTIYAAGRLQWLSALVGGLMFGFGMVLGSGCGSKTLVRIGGGNLKSVVVFVFLGLSAYMTLKGVFGVVRVATVDAVAIALPTTQDLPSVLGHALSADVRMLRLALALAIGGALAVWALAGRDFRTPDNLLGGIGVGLVIVAMWYVSGHLGYVAEDPDTLQEAFVATNSGRMEALSFVAPVSYTLEWLMFFSDTSKVLTVGIVSVLGVIAGSAAVALASGTFRWEGFANAEDTGNHIVGGILMGAGGVTALGCTIGQGLSGVSTLAIGSFVALAGILAGAVLAFRYQMWRLERGG	failed
MPDSVEDTSTISLRICLEGHANALALNKDNNQIALAGRSLLKVYSINSNGFTESCNMRGKNQNLSYSANDVAWSTLDSNLLATAATNGVVSVWDLSKFGRQKQLLVYNEHERTAHTVTFHSSEPNILISGSQDGTIKCFDIRSDKSINTYFCNSESVRDVKFSPHTQNIFSAVSENGTVQLWDMRKWDKCMVQFTAHYGPVYTCDWHPTRNWLATGSRDKQIKVWNMDGRPGLEHTIHTIAVVGRVKWRPERTYHIASCALVVDYSVHVWDIRRPYIPFASFNEHTNVTTGIAWQGSDSHCLLSISKDSTIYKHAFKDATRPALKANAQGASLGRFGDISFANKIKEYEPKTSGASNTKSSSFIRRKTNVAGSIQFHLDHSKMYKFMVNDTFSGYPLSESVSRPTQEHESFIGCARELVISGKKLSELCEHNAEVSKKYGKHNATTLWNFIKLFYGSNHFEPPFEHRSSFSNQKNPMNSRRATQVASDWPQQRTELGQDLNGNTPETAHEIDVANVDDDTLGSSGVEHPPTSSVILSETQIISEITFDNFELLRNGFIYVGPTECPKALAFPALHHDVQAARPQLDLKASDHEKSPVS	failed
MPDYVYGDSMVLKLTLEYSSVLLVSLICCIIAFTSTYTVMPRLINKLKEANVVGNDIHKISKPIVAEMGGIGILFGFTIGMFIGMYCFPELQYELMVTLLVILLVGIVGMVDDLVRLSSREKLFLLFLAGLPIIWVAPPKVGILYMIMMPVAVSIASNLTNMLAGLNGIESGLGSIAMTALTASCIIMGKYDVSIITMAMLGALLAFLMYNRYPSRVFPGDVGTLIIGACIASVAFIGRVKIIALIVLLPNIIDGILKFYSAGVVERHKHRPTEIAEDGKLIAPPEGFNSLIRWILRRPMTEKKVVMIVWSIGMFFGFLGVLLAFILPLDPF	failed
MPEDLNWAIGGEAGDGIDSTGKIFAQALSRAGRHVFTSKDFASRIRGGYTAYKVRTSVDRVESVVDRLDILIALTERTIHENEDELHEDSVIIYDGERSTMQDVEVPGDATALEVPLKRLAEDAGGAIMLNVVALGAACEVTGFPIENLDESLEKRFGDKGEAIVENNKEAARKGQHYVQEEYGEFDYDMETTDEDYVLLNGDEAIGMGAIAAGCRFYSGYPITPATDVMEYMTGRVDQFGGKVVQAEDELSAINMALGAARAGARAMTATSGPGIDLMTETFGLVATSETPLVICDVMRSGPSTGMPTKQEQGDLNMTLYGGHGEIPRFVVAPTTVSECFWKTVEAFNLAEKYQTPVFLVSDLAMAVTEQTFSPETFDMDEVEIDRGKVVDENEIDAWLDEKGRFQAHFAAADGVSPRAFPGTTDGAHMTTGLEHDELGRRTEDTDVRIEQVDKRQRKVETAREQEDFDYREFGDSDADTLVISWGSNEGALREGLTLLEEDGYDVRFLSVPYIFPRPDLSEEIEAAEDVIVVECNATGQFADVIEHDVLERVQRINKYNGVRFKADELATEIKQTLDTPPEATQ	failed
MPEEALIVVDMQRDFMPGGALPVPEGDKIIPKVNEYIRKFKEKGALIVATRDWHPENHISFRERGGPWPRHCVQNTPGAEFVVDLPEDAVIISKATEPDKEAYSGFEGTDLAKILRGNGVKRVYICGVATEYCVRATALDALKHGFEVYLLRDAVKGIKPEDEERALEEMKSRGIKIVQF	not failed
MPELPEVETTRRRLRPLVLGQTLRQVVHRDPARYRNTALAEGRRILEVDRRGKFLLFALEGGVELVAHLGMTGGFRLEPTPHTRAALVLEGRTLYFHDPRRFGRLFGVRRGDYREIPLLLRLGPEPLSEAFAFPGFFRGLKESARPLKALLLDQRLAAGVGNIYADEALFRARLSPFRPARSLTEEEARRLYRALREVLAEAVELGGSTLSDQSYRQPDGLPGGFQTRHAVYGREGLPCPACGRPVERRVVAGRGTHFCPTCQGEGP	not failed
